Experimental data reported in the supplement of paper PMC12764529.
± gives the half width of the 95% confidence interval.

What was measured:
[1] = folding stability dG unfold from chymotrypsin proteolysis; higher = more stable
How it was run: (§1)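 Designed mini-proteins with no cysteine and under 80 residues were kept only if AlphaFold2 dimer inter-PAE was above 15. In a PA-tagged cDNA display construct, they were digested with trypsin and chymotrypsin and then sequenced. K50 was inferred by Bayesian fitting of counts, and unfolding free energy was derived per protease or combined against a sequence-predicted unfolded-state K50 and a shared folded-state K50.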

[2] = folding stability dG unfold from trypsin proteolysis; higher = more stable
How it was run: as §1

[3] = folding stability dG unfold (combined trypsin and chymotrypsin); higher = more stable
How it was run: as §1

Sequence	folding stability dG unfold [1] [kcal/mol]	folding stability dG unfold [2] [kcal/mol]	folding stability dG unfold [3] [kcal/mol]
SAKKIPLDDAKIRIKMESPNGMIMEFPIKNVQIDPKNGKLSFEFPMRIYNPDNGKERPMRMKIDEIVPVSAG [r14_825_TrROS]	0.299 ± 0.25	0.107 ± 0.37	0.22 ± 0.19
SAKKITLTPPNGKKITITVHPDGSITITYEKGKITLPGHPGAKIKKATVDPKKGYITIIVNDKPIVIPISAG [r14_276_TrMRF]	2.83 ± 0.071	1.66 ± 0.044	2.39 ± 0.12
SAKKKFKVKEVKVTKHKGKFKIGDKEIEKELYTVNVVIEDENGNKYPFTFTFEKPEELKKFVEKLEEEKSAG [r14_36_TrMRF]	4.075 ± 0.028	3.03 ± 0.17	3.61 ± 0.2
SAKKKITVKIKIEYDKETGTLKVEVEITYPDGKKVKVEAEIDLKTGKITIKVYDKNGKLIAEIEIELPPSAG [r14_524_TrROS_Hall]	2.35 ± 0.092	2.68 ± 0.25	2.61 ± 0.36
SAKKKVIEVELPPDAKVVTIKLEGKGVEITFVEVDGKLVITVRYKDDPSKTVTIVVKTKEEADALLKALSAG [r14_716_TrROS_Hall]	1.85 ± 0.068	1.23 ± 0.082	1.66 ± 0.27
SAKKLIIKVEVETFDEETGELKTEERTIEADTLEDALAEIERELPPGARVRIEVFDADGKLVETIEIELSAG [r14_234_TrROS_Hall]	3.1 ± 0.091	4.41 ± 0.23	3.92 ± 0.15
SAKKTIVVPVEKLKELLDALKEAGYEVKVEYNKENPVVTVTITVKDKNGKELKIELVVDKKTGLVTIKLSAG [r14_169_TrROS_Hall]	2.45 ± 0.051	1.97 ± 0.077	2.26 ± 0.13
SAKLAKELAEELAKEILPKFPNIKAVKVEVEPLGDYAIATIIWEKENGKPIISKAIIEKNKKILKVDISSAG [r14_719_TrMRF]	1.26 ± 0.043	1.02 ± 0.047	1.19 ± 0.19
SAKLIRDLLRDHGFPIKNIDVQKNPNGKTYISIEIKMYTPEYKNDEGRPKPRPVEMTATFPADDLLDALSAG [r14_16_TrROS]	0.507 ± 0.25	0.91 ± 0.16	0.676 ± 0.25
SAKLPEGAVVVIEDIEEKEVNGKKYKTIKISVYDKKNKGKLIAETEIVVENGKIVEKKVKVKKVSKEELSAG [r14_651_TrROS_Hall]	2.05 ± 0.14	0.887 ± 0.027	1.61 ± 0.14
SAKLTLEIEVNGKKYKAEITSVDEETGTVTIKVTFPDGSTQTLTLTFPPAPPPKVEKVYVVDKDGKLLKSAG [r14_466_TrROS_Hall]	1.83 ± 0.089	0.644 ± 0.025	1.45 ± 0.12
SAKMSPEMRELVERLQDLYNENGYKVKIEMSNKPGMIRINVQMPNPRKKRKIKEALRGDGFPITRVEIYSAG [r14_284_TrROS]	0.929 ± 0.25	1.62 ± 0.077	1.36 ± 0.23
SAKMYLVIIEIKKDGKTYKLIIIIPEEDENLTEEEILEKIRELAEKLNLEIEKIEVIPLEEAKKLLEELSAG [r14_953_TrROS_Hall]	5.25 ± 0.13	3.66 ± 0.074	5.23 ± 0.13
SAKNIAIKVSIWPFDPEDGEPQTFEITYPFPDPEDAIDEIEEFLPPGYRVKIEVFDPDGKPLKEIEIRISAG [r14_234_TrROS]	2.28 ± 0.048	1.93 ± 0.1	2.09 ± 0.19
SAKPIPLKNVTINMYKDEKGNYYFKVTLNDKFIGEFEFETTEEALEGAIELAKEIEKIYGPNNIKIKNESAG [r14_791_TrMRF]	2.7 ± 0.067	2.33 ± 0.2	2.64 ± 0.31
SAKTIKIEIEVKPEKLEEVLEEIAKALAEKLGLPEDVKEIKIEVTKIEVEKVKVDGKEYVKVKIEIKVESAG [r14_736_TrROS_Hall]	3.97 ± 0.28	3.04 ± 0.19	3.59 ± 0.32
SAKVITIKLKIKVKTEEELEKAKELADELAKKLAEEGKKVKVEVVKIEVEENENGEKTVTIEIKIYLEPSAG [r14_48_TrROS_Hall]	3.72 ± 0.21	3.36 ± 0.22	3.6 ± 0.35
SAKVSHLEFSLPNSVVTPEDLLAALEKLGFPPSKIKKMEIVKVKDNSYVVKIYLENEDGSDSIITLHLPSAG [r14_30_TrMRF]	2.39 ± 0.066	0.515 ± 0.078	1.78 ± 0.11
SAKYYFITVEIYMRTGGGPRKMDITVMIPPEEMPPEDVKEIAKEIADWLAEHHPGFEVKVTIIPPDDMKSAG [r14_723_TrROS]	4.07 ± 0.16	2.39 ± 0.092	3.74 ± 0.47
SALEEEVKKRAEEIAQEIKEKFPNVKEKVVEIELPLPNGTKLKATVTISRSINEKGIEYKIKIEVSEGLSAG [r14_788_JUSTAS]	3.99 ± 0.12	3.22 ± 0.081	3.68 ± 0.17
